{
  "source": "paper PMC3981736",
  "about": "“The Domain-Specific and Temperature-Dependent Protein Misfolding Phenotype of Variant Medium-Chain acyl-CoA Dehydrogenase” (PLoS ONE, 2014)",
  "proteins": {"B1": {"name": "medium-chain acyl-CoA dehydrogenase (MCAD) wild-type (enzyme, human, UniProt P11310-1 26-421, looked up)", "chain": "KANRQREPGLGFSFEFTEQQKEFQATARKFAREEIIPVAAEYDKTGEYPVPLIRRAWELGLMNTHIPENCGGLGLGTFDACLISEELAYGCTGVQTAIEGNSLGQMPIIIAGNDQQKKKYLGRMTEEPLMCAYCVTEPGAGSDVAGIKTKAEKKGDEYIINGQKMWITNGGKANWYFLLARSDPDPKAPANKAFTGFIVEADTPGIQIGRKELNMGQRCSDTRGIVFEDVKVPKENVLIGDGAGFKVAMGAFDKTRPVVAAGAVGLAQRALDEATKYALERKTFGKLLVEHQAISFMLAEMAMKVELARMSYQRAAWEVDSGRRNTYYASIAKAFAGDIANQLATDAVQILGGNGFNTEYPVEKLMRDAKIYQIYEGTSQIQRLIVAREHIDKYKN", "notes": "medium-chain acyl-CoA dehydrogenase (MCAD), human, cDNA of the ACADM gene cloned into pMALc2X; also called WT; wild-type MCAD; source: E. coli BL21-CodonPlus, purified (MBPTrap, SEC, Factor Xa cleavage, SEC); not shown: MBP, N-terminal, cleaved"}, "B2": {"name": "MCAD p.Ala52Val (enzyme, human, UniProt P11310-1 26-421, looked up)", "chain": "B1 chain with A27V", "notes": "medium-chain acyl-CoA dehydrogenase (MCAD), human, ACADM cDNA in pMALc2X with a missense mutation found in newborn screening; number counts on the precursor (initiator methionine +1); also called p.Ala27Val; A27V; source: E. coli DH5α co-transformed with pGroESL, purified (MBPTrap, SEC, Factor Xa cleavage, SEC); not shown: MBP, N-terminal, cleaved"}, "B3": {"name": "MCAD p.Tyr67His (enzyme, human, UniProt P11310-1 26-421, looked up)", "chain": "B1 chain with Y42H", "notes": "medium-chain acyl-CoA dehydrogenase (MCAD), human, ACADM cDNA in pMALc2X with a missense mutation found in newborn screening; number counts on the precursor (initiator methionine +1); also called Y67H; p.Tyr42His; source: E. coli DH5α co-transformed with pGroESL, purified (MBPTrap, SEC, Factor Xa cleavage, SEC); not shown: MBP, N-terminal, cleaved"}, "B4": {"name": "MCAD p.Tyr158His (enzyme, human, UniProt P11310-1 26-421, looked up)", "chain": "B1 chain with Y133H", "notes": "medium-chain acyl-CoA dehydrogenase (MCAD), human, ACADM cDNA in pMALc2X with a missense mutation found in newborn screening; number counts on the precursor (initiator methionine +1); also called Y158H; p.Tyr133His; source: E. coli DH5α co-transformed with pGroESL, purified (MBPTrap, SEC, Factor Xa cleavage, SEC); not shown: MBP, N-terminal, cleaved"}, "B5": {"name": "MCAD p.Arg206Cys (enzyme, human, UniProt P11310-1 26-421, looked up)", "chain": "B1 chain with R181C", "notes": "medium-chain acyl-CoA dehydrogenase (MCAD), human, ACADM cDNA in pMALc2X with a missense mutation found in newborn screening; number counts on the precursor (initiator methionine +1); also called R206C; p.Arg181Cys; source: E. coli DH5α co-transformed with pGroESL, purified (MBPTrap, SEC, Factor Xa cleavage, SEC); not shown: MBP, N-terminal, cleaved"}, "B6": {"name": "MCAD p.Asp266Gly (enzyme, human, UniProt P11310-1 26-421, looked up)", "chain": "B1 chain with D241G", "notes": "medium-chain acyl-CoA dehydrogenase (MCAD), human, ACADM cDNA in pMALc2X with a missense mutation found in newborn screening; number counts on the precursor (initiator methionine +1); also called D266G; p.Asp241Gly; source: E. coli DH5α co-transformed with pGroESL, purified (MBPTrap, SEC, Factor Xa cleavage, SEC); not shown: MBP, N-terminal, cleaved"}, "B7": {"name": "MCAD p.Lys329Glu (enzyme, human, UniProt P11310-1 26-421, looked up)", "chain": "B1 chain with K304E", "notes": "medium-chain acyl-CoA dehydrogenase (MCAD), human, ACADM cDNA in pMALc2X with a missense mutation found in patients; number counts on the precursor (initiator methionine +1); also called K329E; p.Lys304Glu; source: E. coli DH5α co-transformed with pGroESL, purified (MBPTrap, SEC, Factor Xa cleavage, SEC); not shown: MBP, N-terminal, cleaved"}, "B8": {"name": "MCAD p.Arg334Lys (enzyme, human, UniProt P11310-1 26-421, looked up)", "chain": "B1 chain with R309K", "notes": "medium-chain acyl-CoA dehydrogenase (MCAD), human, ACADM cDNA in pMALc2X with a missense mutation found in newborn screening; number counts on the precursor (initiator methionine +1); also called R334K; p.Arg309Lys; source: E. coli DH5α co-transformed with pGroESL, purified (MBPTrap, SEC, Factor Xa cleavage, SEC); not shown: MBP, N-terminal, cleaved"}, "B9": {"name": "MCAD p.Arg413Ser (enzyme, human, UniProt P11310-1 26-421, looked up)", "chain": "B1 chain with R388S", "notes": "medium-chain acyl-CoA dehydrogenase (MCAD), human, ACADM cDNA in pMALc2X with a missense mutation found in newborn screening; number counts on the precursor (initiator methionine +1); also called R413S; p.Arg388Ser; source: E. coli DH5α co-transformed with pGroESL, purified (MBPTrap, SEC, Factor Xa cleavage, SEC); not shown: MBP, N-terminal, cleaved"}},
  "note": "Residue numbers refer to the chain shown, from its start. Names and notes keep the numbering of the source.",
  "data": [
    {"target": "the molecule itself", "assay": "SEC; re-chromatography after Factor Xa cleavage of the MBP tag; HiLoad 16/600 Superdex 200, 20 mM HEPES pH 7.0, 200 mM NaCl, 4 °C; tetrameric fraction pooled", "values": [
      {"protein": "B1", "stoichiometry N": 4},
      {"protein": "B2", "stoichiometry N": 4},
      {"protein": "B3", "stoichiometry N": 4},
      {"protein": "B4", "stoichiometry N": 4},
      {"protein": "B5", "stoichiometry N": 4},
      {"protein": "B6", "stoichiometry N": 4},
      {"protein": "B7", "stoichiometry N": 4},
      {"protein": "B8", "stoichiometry N": 4},
      {"protein": "B9", "stoichiometry N": 4}
    ]}
  ]
}
